Positions of bridges follow the written chain, without caps; N, C: chain ends. Non-standard residues stand in square brackets, D forms with d. Residues, ends and D or L forms follow the SMILES beside them. *: point of attachment. Succinyl(O21-dexamethasone) = C[C@@H]1C[C@H]2[C@@H]3CCC4=CC(=O)C=C[C@]4(C)[C@@]3(F)[C@@H](O)C[C@]2(C)[C@@]1(O)C(=O)COC(=O)CCC(=O)*; X1 = CC(C(=O)OCC(=O)[C@@]1(O)[C@H](C)C[C@H]2[C@@H]3CCC4=CC(=O)C=C[C@]4(C)[C@@]3(F)[C@@H](O)C[C@@]21C)C(C)C(=O)*; Dab = NCC[C@H](N)C(=O)O
How the values were obtained:
[1] = Rodent (mouse) PK model of intravenous administration: dexamethasone levels in kidney tissue; type: in vivo; conditions: for Kidney drug (dexamethasone) concentration: T = 24 h, the last time point evaluated; for Kidney dexamethasone levels greater than those achieved through injection of unconjugated dexamethasone: drug concentration in kidney tissue, summary of Table 1
Experimental: Preferential renal targeting validating the delivery of compounds provided herein into kidneys (or at the site of a kidney injury) is evaluated, for example, by pharmacokinetic (PK) tests, such as in a standard rodent PK test. PK data are generally used to establish the key parameters predictive of the therapy outcome. Thus, a drug concentration (C) at given time points, drug concentration at the target tissue(s) (CTarget), area under the curve (AUC) for a plot monitoring the change in the systemic drug concentration over time and other parameters are generally predictive of therapeutic efficacy. For example, drug concentration at an organ affected by cancer is important for effective action of anticancer agents (as described, for example, by Zhang et al. in Drug Metabolism and Disposition. 2019, vol. 47, p. 1122).
Representative compounds provided herein were tested in a rodent PK model of intravenous administration performed analogously to methods described in the monograph Current Protocols in Pharmacology, 2005, 7.1.1-7.1.26, John Wiley & Sons, Inc. Illustrative mouse PK data for the compounds of Examples 1 and 2 are summarized in the Table 1 below.

[2] = system: cisplatin-induced acute kidney injury (AKI); experiment: Cisplatin-induced acute kidney injury mouse model (blood CREA and BUN on day 3); type: in vivo, C57BL/6 mouse; conditions: cisplatin 20 mg/kg i.p.; test articles i.v. after 1 h, 4 mg/kg; about 20% dexamethasone equivalent dosing; FIG. 1
Experimental: Specifically, in one of the tests, cisplatin (20 mg/kg) was administrated to C57BL/6 mouse (male, weight range 20-25 g) by intraperitoneal injection to induce acute kidney injury. After 1 h, testing articles (saline, or dexamethasone, or a compound of Example 1 or 2) were given by intravenously. On day 3, blood CREA (creatinine) and BUN (blood urea nitrogen) were determined.

[3] = T = 3 h, injection into mouse tail vein
[4] = T = 3 h, injection into mouse tail vein, dexamethasone 1 mg/kg, Examples 4 mg/kg

Drug levels from standard injection of unconjugated drug ([1]; after only 6 h)	concentration at 3 h ([1]; kidney, intravenous, T = 3 h, injection into mouse tail vein, dexamethasone 1 mg/kg, Examples 4 mg/kg, read-out: Kidney tissue concentration (dexamethasone levels in kidneys)) [ng/g]	SMILES	Enhanced dexamethasone levels in kidney expressed per ratio vs. dosing of free dexamethasone [1, 3]	Kidney tissue concentration (dexamethasone levels in kidneys) [1, 4] [ng/g]	Kidney drug (dexamethasone) concentration [1] [ng/g]	Kidney dexamethasone levels greater than those achieved through injection of unconjugated dexamethasone [1]	Anti-inflammatory efficacy in the AKI model per BUN and CREA values, compared to dexamethasone [2]
virtually undetectable	13	C[C@@H]1C[C@H]2[C@@H]3CCC4=CC(=O)C=C[C@]4(C)[C@@]3(F)[C@@H](O)C[C@]2(C)[C@@]1(O)C(=O)CO [Dexamethasone, dexamethasone, reference compound]	1				
		CC(C)C[C@@H]1NC(=O)[C@@H](Cc2ccccc2)NC(=O)[C@H](CCN)NC(=O)[C@@H](NC(=O)[C@H](CCN)NC(=O)[C@@H](NC(=O)C(C)C(C)C(=O)OCC(=O)[C@@]2(O)[C@H](C)C[C@H]3[C@@H]4CCC5=CC(=O)C=C[C@]5(C)[C@@]4(F)[C@@H](O)C[C@@]32C)[C@@H](C)O)CCNC(=O)[C@H]([C@@H](C)O)NC(=O)[C@H](CCN)NC(=O)[C@H](CCN)NC1=O (stereo partly shown) [Example 1] (X1-T[Dab][Dab][Dab][dF]L[Dab][Dab]T; lactam 3-C)	9.4	122.2	21.5	about 9 fold	greatly increased anti-inflammatory efficacy
		CC(C)C[C@@H]1NC(=O)[C@@H](Cc2ccccc2)NC(=O)[C@H](CCN)NC(=O)[C@@H](NC(=O)[C@H](CCN)NC(=O)[C@@H](NC(=O)CCC(=O)OCC(=O)[C@@]2(O)[C@H](C)C[C@H]3[C@@H]4CCC5=CC(=O)C=C[C@]5(C)[C@@]4(F)[C@@H](O)C[C@@]32C)[C@@H](C)O)CCNC(=O)[C@H]([C@@H](C)O)NC(=O)[C@H](CCN)NC(=O)[C@H](CCN)NC1=O [Example 2] ({Succinyl(O21-dexamethasone)}-T[Dab][Dab][Dab][dF]L[Dab][Dab]T; lactam 3-C)	7.2	93.4	18.5	~7 fold	greatly increased anti-inflammatory efficacy
